T1: Lys(Dnp)-ATNATFMPRIVGG-Lys(Abz)
T1 chain: KATNATFMPRIVGGK

T2: Lys(Dnp)-ATNATFGPRIVGG-Lys(Abz)
T2 chain: KATNATFGPRIVGGK

T3: Lys(Dnp)-ATNATYKPRIVGG-Lys(Abz)
T3 chain: KATNATYKPRIVGGK

T4: Lys(Dnp)-ATNATKWPRIVGG-Lys(Abz)
T4 chain: KATNATKWPRIVGGK

T5: Lys(Dnp)-ATNATKYPRIVGG-Lys(Abz)
T5 chain: KATNATKYPRIVGGK

T6: Lys(Dnp)-ATNATTLPRIVGG-Lys(Abz)
T6 chain: KATNATTLPRIVGGK

T7: Lys(Dnp)-ATNATEMPRIVGG-Lys(Abz)
T7 chain: KATNATEMPRIVGGK

B1: Human plasma purified Factor Xa (protein)
chain 1: ANSFLEEMKKGHLERECMEETCSYEEAREVFEDSDKTNEFWNKYKDGDQCETSPCQNQGKCKDGLGEYTCTCLEGFEGKNCELFTRKLCSLDNGDCDQFCHEEQNSVVCSCARGYTLADNGKACIPTGPYPCGKQTLER
chain 2: IVGGQECKDGECPWQALLINEENEGFCGGTILSEFYILTAAHCLYQAKRFKVRVGDRNTEQEEGGEAVHEVEVVIKHNRFTKETYDFDIAVLRLKTPITFRMNVAPACLPERDWAESTLMTQKTGIVSGFGRTHEKGRQSTRLKMLEVPYVDRNSCKLSSSFIITQNMFCAGYDTKQEDACQGDSGGPHVTRFKDTYFVTGIVSWGEGCARKGKYGIYTKVTAFLKWIDRSMKTRGLPKAKSHAPEVITSSPLK
B2: Human plasma purified Factor Xa (Molecular Innovations, Inc) (protein)
chain 1: B1 chain 1
chain 2: B1 chain 2

Legend:
[1] = molecular target: T1, Lys(Dnp)-ATNATFMPRIVGG-Lys(Abz)
[2] = molecular target: T2, Lys(Dnp)-ATNATFGPRIVGG-Lys(Abz)
[3] = molecular target: T3, Lys(Dnp)-ATNATYKPRIVGG-Lys(Abz)
[4] = molecular target: T4, Lys(Dnp)-ATNATKWPRIVGG-Lys(Abz)
[5] = molecular target: T5, Lys(Dnp)-ATNATKYPRIVGG-Lys(Abz)
[6] = molecular target: T6, Lys(Dnp)-ATNATTLPRIVGG-Lys(Abz)
[7] = molecular target: T7, Lys(Dnp)-ATNATEMPRIVGG-Lys(Abz)

Protein | FXa kcat/KM [1] | FXa kcat/KM [2] | FXa kcat/KM [3] | FXa kcat/KM [4] | FXa kcat/KM [5] | FXa kcat/KM [6] | FXa kcat/KM [7]
B1 | 840 M⁻¹ s⁻¹ | 100 M⁻¹ s⁻¹ | 25 M⁻¹ s⁻¹ |  |  |  | 
B2 |  |  |  | 130 M⁻¹ s⁻¹ | 38 M⁻¹ s⁻¹ | 140 M⁻¹ s⁻¹ | 13 M⁻¹ s⁻¹

— US20160024487
